Target: PFD1235w DBLβ3_D4, wild type (P. falciparum 3D7)
Assay: SPR

B1: ICAM-1_D1 (domain or fragment)
chain: QTSVSPSKVILPRGGSVLVTCSTSCDQPKLLGIETPLPKKELLLPGNNRKVYELSNVQEDSQPMCYSNCPDGQSTAKTFLTVYWT
Kd: 2.34 nM | koff: 0.00337 s⁻¹
